Results from patent US20170158755A1 (PROTHENA BIOSCIENCES, published 2017).

What was measured:
[1] = biological target: T1, LGde2, human LAMA4 G domain with LG2 deleted, displayed on 293 cells (human, UniProt Q16363 830-1821, limits assumed); test: flow cytometry, 650-labeled MCAM-Fc on 293 cells displaying the variant
T1 construct: pDisplay construct on 293 cells; vector tags and anchor not written here; also called LGde2 (LG13)
T1 sequence: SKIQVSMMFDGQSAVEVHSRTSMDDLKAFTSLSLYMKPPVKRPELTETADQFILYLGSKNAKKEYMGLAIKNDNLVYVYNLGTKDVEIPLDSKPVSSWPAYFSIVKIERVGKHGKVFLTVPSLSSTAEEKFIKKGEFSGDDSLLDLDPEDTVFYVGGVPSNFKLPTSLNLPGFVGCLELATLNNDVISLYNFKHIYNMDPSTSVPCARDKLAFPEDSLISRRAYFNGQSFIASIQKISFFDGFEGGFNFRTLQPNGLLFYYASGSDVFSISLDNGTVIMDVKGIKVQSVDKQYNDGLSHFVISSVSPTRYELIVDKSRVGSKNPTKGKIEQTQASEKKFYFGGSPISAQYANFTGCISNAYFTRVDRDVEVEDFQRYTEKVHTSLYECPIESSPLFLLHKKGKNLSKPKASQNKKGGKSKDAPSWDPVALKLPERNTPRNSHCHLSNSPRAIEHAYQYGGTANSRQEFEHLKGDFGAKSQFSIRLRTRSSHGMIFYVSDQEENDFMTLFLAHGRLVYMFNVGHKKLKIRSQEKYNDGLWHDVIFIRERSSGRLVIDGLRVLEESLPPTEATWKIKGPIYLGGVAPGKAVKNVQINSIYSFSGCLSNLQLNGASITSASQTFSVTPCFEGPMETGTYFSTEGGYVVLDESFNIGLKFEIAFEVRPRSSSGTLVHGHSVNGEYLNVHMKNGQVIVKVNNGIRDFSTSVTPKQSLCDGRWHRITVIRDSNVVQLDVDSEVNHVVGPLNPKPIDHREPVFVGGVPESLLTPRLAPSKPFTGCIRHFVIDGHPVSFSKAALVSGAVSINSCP
Text: (§1) LGde1 has a full-length G domain (i.e., LG1-5) with LG1 deleted, LGde2 has a full-length G domain with LG2 deleted, and LGde3 has a full-length G domain with LG3 deleted. Recombinant MCAM-Fc protein was able to specifically bind 293 cells expressing LAMA4 variants LG1-5, LG1-3, and LGde 1 (LG23), but not 293 cells expressing LAMA 4 variants LG4-5, LGde2 (LG13), or LGde3 (LG12).

[2] = biological target: T2, LGde1, human LAMA4 G domain with LG1 deleted, displayed on 293 cells (human, UniProt Q16363 1036-1821); test: as above
T2 construct: pDisplay construct on 293 cells; vector tags and anchor not written here; also called LGde 1 (LG23)
T2 sequence: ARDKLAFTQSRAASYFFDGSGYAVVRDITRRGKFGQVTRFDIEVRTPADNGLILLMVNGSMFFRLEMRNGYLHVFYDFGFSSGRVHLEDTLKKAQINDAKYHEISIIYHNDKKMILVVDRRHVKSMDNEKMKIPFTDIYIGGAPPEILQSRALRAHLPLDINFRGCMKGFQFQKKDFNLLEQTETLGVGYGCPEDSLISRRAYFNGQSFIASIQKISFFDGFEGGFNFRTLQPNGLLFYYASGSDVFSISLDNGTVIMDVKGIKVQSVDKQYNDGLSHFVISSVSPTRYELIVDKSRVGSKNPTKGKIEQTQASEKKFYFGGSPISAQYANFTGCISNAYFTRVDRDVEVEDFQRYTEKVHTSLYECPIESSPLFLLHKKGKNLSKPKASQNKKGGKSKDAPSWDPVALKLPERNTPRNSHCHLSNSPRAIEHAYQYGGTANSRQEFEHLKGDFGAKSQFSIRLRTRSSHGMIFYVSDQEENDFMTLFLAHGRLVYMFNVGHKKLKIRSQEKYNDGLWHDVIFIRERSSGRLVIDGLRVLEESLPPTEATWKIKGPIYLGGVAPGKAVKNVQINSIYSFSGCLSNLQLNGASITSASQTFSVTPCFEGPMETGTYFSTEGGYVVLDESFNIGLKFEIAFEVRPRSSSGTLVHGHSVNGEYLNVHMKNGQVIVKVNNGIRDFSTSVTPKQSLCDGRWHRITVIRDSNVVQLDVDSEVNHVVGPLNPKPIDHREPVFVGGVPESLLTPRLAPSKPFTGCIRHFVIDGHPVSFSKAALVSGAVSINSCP
Text: as §1

binding result [1]: no binding
binding result [2]: binds
B1: mouse MCAM-Fc fusion protein (Fc fusion, UniProt Q8R2Y2 24-563, looked up)
chain: VPGEEKQPVPTPDLVEAEVGSTALLKCGPSRASGNFSQVDWFLIHKERQILIFRVHQGKGQREPGEYEHRLSLQDSVATLALSHVTPHDERMFLCKSKRPRLQDHYVELQVFKAPEEPTIQANVVGIHVDRQELREVATCVGRNGYPIPQVLWYKNSLPLQEEENRVHIQSSQIVESSGLYTLKSVLSARLVKEDKDAQFYCELSYRLPSGNHMKESKEVTVPVFYPAEKVWVEVEPVGLLKEGDHVTIRCLTDGNPQPHFTINKKDPSTGEMEEESTDENGLLSLEPAEKHHSGLYQCQSLDLETTITLSSDPLELLVNYVSDVQVNPTAPEVQEGESLTLTCEAESNQDLEFEWLRDKTGQLLGKGPVLQLNNVRREAGGRYLCMASVPRVPGLNRTQLVSVGIFGSPWMALKERKVWVQENAVLNLSCEASGHPQPTISWNVNGSATEWNPDPQTVVSTLNVLVTPELLETGAECTASNSLGSNTTTIVLKLVTLTTLIPDSSQTTGLSTLTVSPHTRANSTSTEKKLPQPESKGVV
notes: extracellular domain; Made in house; also called mMCAM-Fc; 650-conjugated mouse MCAM-Fc; not shown: human IgG1 (Fc part of the fusion)
